# The nanobody polyreactivity screen of Harvey et al. (2022)
# Assay: yeast display, Sf9 membrane polyspecificity reagent, FACS + sequencing; frameworks hold sequencing errors
# Method in brief: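 Nanobodies from a synthetic yeast display library (Saccharomyces cerevisiae BJ5465), induced 36–48 hours with galactose, were stained 1 hour at 4 °C with 10% biotinylated, detergent-solubilized Sf9 membrane reagent, enriched on streptavidin microbeads, then FACS-sorted. Anti-HA (expression) and streptavidin (reagent binding) fluorescence set low and high (top ~1%) gates. Polyreactivity labels come from the gate of origin. Genes were colony-PCR amplified, MiSeq 2 × 250 sequenced and filtered by CDR length.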
row,Sequence,polyreactivity (PSR sort gate)
1,QVQLVESGGGLVQAGGSLRLSCAASGLIFGLYSMGWYRQAPGKERELVAAISYRTDSTYADSVKGRFTISRDNAKNTVYLQMNSLKPEDTAVYYCAADLRVSVRYYYWGQGTQVTVSW,low polyreactivity
2,QVQLVESAGGLVQAGGSLRLSCAASGYTISYANAMGWYRQAPGKERELVASISSTGGRTYYADSVKGRFTISRDNAKNTVYLQMNSLKPEDTAVYYCASRYWRYGYWGQGTQVTVSS,high polyreactivity
3,QVQHVESGGGLVQAGGSLRLSCAASGRIFEIYAMGWYRPAPGKERYLVAAISWRGVSTYYADSVKGRFTISRDYAKNTVYLQMNSLKPEDTAVFYCNNDVDYFWYVEYDYWGQGTQVTVSS,low polyreactivity
4,QVQHVESGGRLVQAGGSLRLICAASGRTFAPYAMGWYRQAPGKVRELVARITWSGTDTYYADSVKGRFTISRDNAKNTVYLQMNSLKPEDTAVYYCAADARYSRRYYYWGEGTQVTVSS,low polyreactivity
5,QVQLVESGGGLVQAGGSLRLSCAASGFIFYDYAMGWYRQAPGKERELVAVITSGGSTYYADSVKGRFTISRDNAKNTVYLQMNSLKPEDTAVYYCNADWVFTWYDYPNDKYDYWGQGTQVTVSS,low polyreactivity
6,QVQLVESGGGLVQAGGSLLLICSASGSTFVRHAMGWYRHAPGKESELDAAISTRGGSTSYADSVKGRFTISRDNSKNSVYLQMKSLKQEDTAVYYCAKVLAYSQGIRHGYWGQGTQVTVSS,low polyreactivity
7,QLQLLESDGGLVQAGVSLRLSCATSAMTISRYTMGWYRQAPGKARELVAVITYRGGSTYYADSVKGRFTISRDNAKNTVYLQMNSLKPEDTAVYYCAAGRRTYGLTYDYWGQGTQVTVSS,high polyreactivity
8,QVQLVESGGGLVQAGGSLRLSCAASGSTLLYYAMGWSRQAPGKERELVAAITSGARTYYADSVKGRFTISRDNAKNTVYLQMNSLKPEDTAVYYCNAYRTSWWRAYDYWGQGTQVTVSS,high polyreactivity
9,QVQLVESGGGLVQAGGSLRFSCAASGRIFGRYAMGWYRQAPGKERELDAAISYSGGSTYYADSVKGRFTISRDNAKNTVYLQMNSLKPEDTAVYYCAVVVYQYTPSQRFYYWGQGTQVTVSS,high polyreactivity
10,QVQLVESGGGLVQAGGSLRLSCAASGSNFLHNAMGWYRQAPGKERELDAAISGTGGRTYYADSVKGRFTISRDTANNTVYLQMNGLKPEDTAVYYWAARGSHVSIPRYNYWGQGTQVTVSS,high polyreactivity
11,QVQLVESGGGLVQAGGSLRLSCAASGSIFRNYAMGWYRQAPGKERELVAAITSIGGGTYYADSVKGRFTISRDNAKNTVYLQMNSLKPEDTAVYYCAAVSGPFVQTSGNGEYDYWGQGTQVTVSS,low polyreactivity
12,QVQLEESGGRLVQAGGSLRLSCAASGSIIGRYTMGWYRQAPGKERELVAAISGSGGSTYYADSVKGRFTISRDNAKNSVYFQMYSLKPEDTAVYYCAAYYYGRYLMVYWGQGTQVTVAS,high polyreactivity
13,QVQLVESGGGLVQAGGSLRLSCAASGRTYVRNGMGWYRQAPGKERELVAAISRGGSTNYADSVKGRFTISRDNAKNTVYLEMNSLKPEDTAVYYCNARTAEYRPYYYRYNYWGQGTQVTLSS,high polyreactivity
14,QVQLVESGGGLGQAGGSLRLSCPASGITFVYYAMGWYRQSPGKERELVATITKSGVSTYYADSVKGRFTISRDNAKYTVYLQMNSLKPEDTAVYYCAKDVSYRFYWTYDYWGQGTQVTVSS,low polyreactivity
15,QVHLVESGGGLVQAGGSLRLSCAASGSTFGSNAMGWYRQAPGKERELVAAITNGGSTNYADSVKGRFTISRDNAKNTVYLQMNSLKPDDTAVYYCNGDPQQSKLWTYFFGFPGYYWGQGTQVTVSS,low polyreactivity
16,QDQLVESGGGLVQAGGSLRLSCAATGRIFVYYAMGWSRQAPGKERELVATISSGGSTYYADSVKGRFTISRDNAKNTVYLQMNSLKPDDTAVYYCAADNVNLYLAYYYKGDYWGQGTQVTVSS,low polyreactivity
17,QVQLVESGGGLVQAGGSLRLSCAASGSSFNRYAMGWYRQAPGKERELVAGISYRGGTYYADSVKGRFTISRDNAKNTVYLQMNSLKPEDTAVYYCNVVRRGTTSYDDYDYWGQGTQVTVSS,high polyreactivity
18,QVQLVESGGGLVQAGGSLRLSCAASGFIFNRYAMGWYRPAPGNERELVATITRRGGRTYYADSVKGRFTISRDNAKNTVYLQMNSLKPEDTALYYCNADPNVPVETFDYWGQVTQVTVSS,high polyreactivity
19,QVQLVESGRGLVQTGGSLRLSCAASGLVNAMGWYRQAPWKERELVAAISSGGSTYYADSVKGRFTISRDNAKNTVYLQMNSLKPEDTAVYYCNAVYFRHYGYGYWGQGTQVTVSS,low polyreactivity
20,QVQLVESGGGLVQAAGSLRLSCAASGSIFGAYAMGWYRQAPGKERELVAAINYGGATTYYADSVKGRFTISRDNAKNTVYLQMNSLKPEDTAVYYCAADYLYAYGDVAVVYGWYAYYYWGQGTQVTVSS,low polyreactivity
21,QVQLVESGGGLVQAGGSLRLICAASVSIFTKYAMGWYRQAPGKERELVADITRSGGSTYYADSVKGRFTISRDNAKNTVYLQMNSLKPEDTAVYYCAVDPVRYPYSYDYWGQGTQVTVSS,high polyreactivity
22,QVQLVESGGGLVQAGASLRLSCSASGRTFLNYTMGWSRHAPGTERELVAAIRYRDGSTYYADSVKGRFTISRDNAKNTVYLQMNSLKPVDTAVYYCNTRITQVGDYIYDYWGQGTQVTVSS,low polyreactivity
23,QVQLVESGARLVQAGGSLRLSCAASGFIFRAYTMGWYRQAPGKERELVAAITSSGGRTYYADSVKGRFTISRDNAKNTVYLQMNSLKPEDTAVYYCATVDAKWKQFDYWGQGTQVTVSS,high polyreactivity
24,QVQLVESGGGLLQAGGSLRLSCAASGFILNAYTMGWYRQAPGKERELVATITINGGSTYYADSVKGRFTISRDNAKNTVYLQMNSLKPEDTAVYYCNADYWYKYDYWGQGTQVTVSS,low polyreactivity
25,QVQLVESGGGLVQAGGSLRLSCAASGSTFRFYTMGWYRQAPGKERELVAAISGSGGSTYYADSVKGRFTISRDNAKNTVYLQMNSLKPEDTADYYCAADKSRNASHRGYWGQGTQVTVSS,low polyreactivity
26,QVQLVESGGGLVQAGGSLRLSCAASGSISYQNAMGWYRQAPGKERELVAAISGDGDSTYYADSVKGRFTISRDNAKNTVYLQMNSLKPEDTAVYYCAAEPNVYFSVFVLFPSDYWGQGTQVTVSS,low polyreactivity
27,QVQLVESGGGLVQAGGSLRLSCAASGRIFNWYGMGWYRQAPGKERELVATISSSGDSTYYADSVKGRFTISRDNAKNTVYLQMNSLKPEDTAVYYCAKRARYKFGYWGQGTQVTVSS,high polyreactivity
28,QVQLVESGVGLVQAGGSLRLSCAAYGYTFYRYAMGWYRQAPGKERELVAAINKSGGRTYYADSVKGRFTISRDNAKNTVYLQMNSLKPEDTAVYYCNTPFDYPDNPEYDYWGQGTQVTVSS,high polyreactivity
29,QVQLVESGGGLVQAGGSLRLSCAASGRIFYFNGMGWYRQAPGKERELVASISASGDRTYYADSVKGRFTISRDNAKNTVYLQMNSLKPEDTAVYYCATDANTYTKYDYWGQGTQVTVSS,low polyreactivity
30,QVQLVESGGGLVEAGGSLRISCAASGFIFGPYAMGWYRQAPGKERELVAASWRGGSTYYADSVKGRFTISRDNAKNTVYLQMNSLKPEDTAVYYCAADVIYSLYYYWGQGTQVTVSS,low polyreactivity
